This passage reports binding result and IC50 results from patent US20230250156A1 (QUADRUCEPT BIO, published 2023).

For assay [1], the target named is T1, SARS-CoV-2 RBD protein (SARS-CoV-2, UniProt P0DTC2 319-541).
T1 construct: domain: RBD
The assay is described as follows: indirect binding ELISA, CoV-2 RBD coated. For orientation: ELISA stands for enzyme-linked immunosorbent assay.

Assay [2] addresses T1, SARS-CoV-2 RBD protein.
Assay [3] concerns the target T1, SARS-CoV-2 RBD protein. This is another data set of the same source.
Assay [4] deals with T1, SARS-CoV-2 RBD protein. The assay is described as follows: competitive ELISA as for the GB Quads, ACE2 Ig coated.
In assay [5] the target is T1, SARS-CoV-2 RBD protein. The source holds these as a separate data set.

Like-named read-outs stand apart in the source and are kept apart here.

B1: QB-FE VHH (monovalent) (VHH)
VHH: QVQLVESGGGSVQAGGSLRLSCAASGTIAHIKYLGWFRQAPGKEREGVAALMTKWGQTYYADSVKGRFTVSLDNAKNTVYLQMNSLKPEDTALYYCAAASYGANFPLKASDYSYWGQGTQVTVS
Take B1: the binding result with SARS-CoV-2 RBD protein [1] is “no binding (tested: 100 nM)”.

B2: Q180/Q182 (VHH QB-GB Fab-like Ig, non-Quad format) (VHH)
heavy: not shown
light: QVQLQESGGGLVQAGGSLRLSCAASGRTFSEYAMGWFRQAPGKEREFVATISWSGGSTYYTDSVKGRFTISRDNAKNTVYLQMNSLKPDDTAVYYCAAAGLGTVVSEWDYDYDYWGQGTQVTVSSGGGGSGGGGSKRTVAAPSVFIFPPSDEQLKSGTASVVCLLNNFYPREAKVQWKVDNALQSGNSQESVTEQDSKDSTYSLSSTLTLSKADYEKHKVYACEVTHQGLSSPVTKSFNRGEC
Turning to B2, in the assay with SARS-CoV-2 RBD protein [2], the IC50 (commonly the concentration that gives 50% inhibition) stood at 77.8 pM.

B3: Q181/Q182 (VHH QB-GB Fab-like Ig-TD) (VHH)
heavy: not shown
light: QVQLQESGGGLVQAGGSLRLSCAASGRTFSEYAMGWFRQAPGKEREFVATISWSGGSTYYTDSVKGRFTISRDNAKNTVYLQMNSLKPDDTAVYYCAAAGLGTVVSEWDYDYDYWGQGTQVTVSSGGGGSGGGGSKRTVAAPSVFIFPPSDEQLKSGTASVVCLLNNFYPREAKVQWKVDNALQSGNSQESVTEQDSKDSTYSLSSTLTLSKADYEKHKVYACEVTHQGLSSPVTKSFNRGEC
Consider B3, for which the midpoint of inhibition with SARS-CoV-2 RBD protein [2], the IC50, lay at 15.4 pM.

B4: Q183/Q182 (VHH QB-GB Fab-like TD) (VHH)
heavy: QVQLQESGGGLVQAGGSLRLSCAASGRTFSEYAMGWFRQAPGKEREFVATISWSGGSTYYTDSVKGRFTISRDNAKNTVYLQMNSLKPDDTAVYYCAAAGLGTVVSEWDYDYDYWGQGTQVTVSSGGGGSGGGGSASTKGPSVFPLAPSSKSTSGGTAALGCLVKDYFPEPVTVSWNSGALTSGVHTFPAVLQSSGLYSLSSVVTVPSSSLGTQTYICNVNHKPSNTKVDKKVEPKSCDKTHTKKKPLDGEYFTLQIRGRERFEMFRELNEALELKDAQAGKEPG
light: QVQLQESGGGLVQAGGSLRLSCAASGRTFSEYAMGWFRQAPGKEREFVATISWSGGSTYYTDSVKGRFTISRDNAKNTVYLQMNSLKPDDTAVYYCAAAGLGTVVSEWDYDYDYWGQGTQVTVSSGGGGSGGGGSKRTVAAPSVFIFPPSDEQLKSGTASVVCLLNNFYPREAKVQWKVDNALQSGNSQESVTEQDSKDSTYSLSSTLTLSKADYEKHKVYACEVTHQGLSSPVTKSFNRGEC
Regarding B4, half-maximal inhibition in the assay with SARS-CoV-2 RBD protein [2] (IC50) was put at 31.2 pM.

B5: Q184/Q182 (VHH QB-GB Fab-like mIg-TD) (VHH)
heavy: QVQLQESGGGLVQAGGSLRLSCAASGRTFSEYAMGWFRQAPGKEREFVATISWSGGSTYYTDSVKGRFTISRDNAKNTVYLQMNSLKPDDTAVYYCAAAGLGTVVSEWDYDYDYWGQGTQVTVSSGGGGSGGGGSASTKGPSVFPLAPSSKSTSGGTAALGCLVKDYFPEPVTVSWNSGALTSGVHTFPAVLQSSGLYSLSSVVTVPSSSLGTQTYICNVNHKPSNTKVDKKVEPKSCDKTHTAPELLGGPSVFLFPPKPKDTLMISRTPEVTCVVVDVSHEDPEVKFNWYVDGVEVHNAKTKPREEQYNSTYRVVSVLTVLHQDWLNGKEYKCKVSNKALPAPIEKTISKAKGQPREPQVYTLPPSRDELTKNQVSLTCLVKGFYPSDIAVEWESNGQPENNYKTTPPVLDSDGSFFLYSKLTVDKSRWQQGNVFSCSVMHEALHNHYTQKSLSLSPGKKKKPLDGEYFTLQIRGRERFEMFRELNEALELKDAQAGKEPG
light: QVQLQESGGGLVQAGGSLRLSCAASGRTFSEYAMGWFRQAPGKEREFVATISWSGGSTYYTDSVKGRFTISRDNAKNTVYLQMNSLKPDDTAVYYCAAAGLGTVVSEWDYDYDYWGQGTQVTVSSGGGGSGGGGSKRTVAAPSVFIFPPSDEQLKSGTASVVCLLNNFYPREAKVQWKVDNALQSGNSQESVTEQDSKDSTYSLSSTLTLSKADYEKHKVYACEVTHQGLSSPVTKSFNRGEC
For the molecule B5, half-maximal inhibition with SARS-CoV-2 RBD protein [2] (IC50) was put at 34.2 pM.

B6: Q186/Q182 (VHH QB-GB Fab'-like TD, octavalent GB Quad) (VHH)
heavy: QVQLQESGGGLVQAGGSLRLSCAASGRTFSEYAMGWFRQAPGKEREFVATISWSGGSTYYTDSVKGRFTISRDNAKNTVYLQMNSLKPDDTAVYYCAAAGLGTVVSEWDYDYDYWGQGTQVTVSSGGGGSGGGGSASTKGPSVFPLAPSSKSTSGGTAALGCLVKDYFPEPVTVSWNSGALTSGVHTFPAVLQSSGLYSLSSVVTVPSSSLGTQTYICNVNHKPSNTKVDKKVEPKSCDKTHTCPPCPAPELLGGKKKPLDGEYFTLQIRGRERFEMFRELNEALELKDAQAGKEPG
light: QVQLQESGGGLVQAGGSLRLSCAASGRTFSEYAMGWFRQAPGKEREFVATISWSGGSTYYTDSVKGRFTISRDNAKNTVYLQMNSLKPDDTAVYYCAAAGLGTVVSEWDYDYDYWGQGTQVTVSSGGGGSGGGGSKRTVAAPSVFIFPPSDEQLKSGTASVVCLLNNFYPREAKVQWKVDNALQSGNSQESVTEQDSKDSTYSLSSTLTLSKADYEKHKVYACEVTHQGLSSPVTKSFNRGEC
Consider B6, for which the IC50 with SARS-CoV-2 RBD protein [3] stood at 8.3 pM; with SARS-CoV-2 RBD protein [2], 14.8 pM.

B7: QB-FE mIg-TD Quad (VHH)
VHH: QVQLVESGGGSVQAGGSLRLSCAASGTIAHIKYLGWFRQAPGKEREGVAALMTKWGQTYYADSVKGRFTVSLDNAKNTVYLQMNSLKPEDTALYYCAAASYGANFPLKASDYSYWGQGTQVTVSS
notes: as m58
Turning to B7, in the assay with SARS-CoV-2 RBD protein [4], the IC50 is 80 pM.

B8: Q185B (tandem GB VHH-hinge-TD) (VHH)
chain: QVQLQESGGGLVQAGGSLRLSCAASGRTFSEYAMGWFRQAPGKEREFVATISWSGGSTYYTDSVKGRFTISRDNAKNTVYLQMNSLKPDDTAVYYCAAAGLGTVVSEWDYDYDYWGQGTQVTVSSGGSGGSQVQLQESGGGLVQAGGSLRLSCAASGRTFSEYAMGWFRQAPGKEREFVATISWSGGSTYYTDSVKGRFTISRDNAKNTVYLQMNSLKPDDTAVYYCAAAGLGTVVSEWDYDYDYWGQGTQVTVSSGGGGSGGGGSEPKSCDKTHTCPPCPAPELLGGKKKPLDGEYFTLQIRGRERFEMFRELNEALELKDAQAGKEPG
Regarding B8, 0.03 pM corresponded to half-maximal inhibition with SARS-CoV-2 RBD protein [5] (IC50).

B9: Q177 (VHH QB-GB-TD) (VHH)
VHH: QVQLQESGGGLVQAGGSLRLSCAASGRTFSEYAMGWFRQAPGKEREFVATISWSGGSTYYTDSVKGRFTISRDNAKNTVYLQMNSLKPDDTAVYYCAAAGLGTVVSEWDYDYDYWGQGTQVTVSS
Regarding B9, in the assay with SARS-CoV-2 RBD protein [2], the IC50 came out at 64.9 pM.

B10: Q178 (VHH QB-GB IgG, non-Quad format) (VHH)
VHH: QVQLQESGGGLVQAGGSLRLSCAASGRTFSEYAMGWFRQAPGKEREFVATISWSGGSTYYTDSVKGRFTISRDNAKNTVYLQMNSLKPDDTAVYYCAAAGLGTVVSEWDYDYDYWGQGTQVTVSS
Molecule B10 displayed an IC50 with SARS-CoV-2 RBD protein [2] of 185 pM.

B11: Q179 (VHH QB-GB Ig-TD) (VHH)
VHH: QVQLQESGGGLVQAGGSLRLSCAASGRTFSEYAMGWFRQAPGKEREFVATISWSGGSTYYTDSVKGRFTISRDNAKNTVYLQMNSLKPDDTAVYYCAAAGLGTVVSEWDYDYDYWGQGTQVTVSS
Molecule B11 displayed an IC50 with SARS-CoV-2 RBD protein [2] of 32.8 pM.

B12: Q185 (VHH QB-GB dimeric TD) (VHH)
VHH: QVQLQESGGGLVQAGGSLRLSCAASGRTFSEYAMGWFRQAPGKEREFVATISWSGGSTYYTDSVKGRFTISRDNAKNTVYLQMNSLKPDDTAVYYCAAAGLGTVVSEWDYDYDYWGQGTQVTVSS
As to B12, the IC50 with SARS-CoV-2 RBD protein [3] worked out at 14.7 pM; in the assay with SARS-CoV-2 RBD protein [2], 23.7 pM.
